Reference: IntAct's records for PubMed 17948050

B1: Mucosa-associated lymphoid tissue lymphoma translocation protein 1 (Homo sapiens), Q9UDY8 (parent)
chain: MSLLGDPLQALPPSAAPTGPLLAPPAGATLNRLREPLLRRLSELLDQAPEGRGWRRLAELAGSRGRLRLSCLDLEQCSLKVLEPEGSPSLCLLKLMGEKGCTVTELSDFLQAMEHTEVLQLLSPPGIKITVNPESKAVLAGQFVKLCCRATGHPFVQYQWFKMNKEIPNGNTSELIFNAVHVKDAGFYVCRVNNNFTFEFSQWSQLDVCDIPESFQRSVDGVSESKLQICVEPTSQKLMPGSTLVLQCVAVGSPIPHYQWFKNELPLTHETKKLYMVPYVDLEHQGTYWCHVYNDRDSQDSKKVEIIIGRTDEAVECTEDELNNLGHPDNKEQTTDQPLAKDKVALLIGNMNYREHPKLKAPLVDVYELTNLLRQLDFKVVSLLDLTEYEMRNAVDEFLLLLDKGVYGLLYYAGHGYENFGNSFMVPVDAPNPYRSENCLCVQNILKLMQEKETGLNVFLLDMCRKRNDYDDTIPILDALKVTANIVFGYATCQGAEAFEIQHSGLANGIFMKFLKDRLLEDKKITVLLDEVAEDMGKCHLTKGKQALEIRSSLSEKRALTDPIQGTEYSAESLVRNLQWAKAHELPESMCLKFDCGVQIQLGFAAEFSNVMIIYTSIVYKPPEIIMCDAYVTDFPLDLDIDPKDANKGTPEETGSYLVSKDLPKHCLYTRLSSLQKLKEHLVFTVCLSYQYSGLEDTVEDKQEVNVGKPLIAKLDMHRGLGRKTCFQTCLMSNGPYQSSAATSGGAGHYHSLQDPFHGVYHSHPGNPSNVTPADSCHCSRTPDAFISSFAHHASCHFSRSNVPVETTDEIPFSFSDRLRISEK

Variants of: B1
Conditions: with ubc_human UBC

| Variant | effect of a mutation on the interaction |
| --- | --- |
| K644R;K648R;K661R;K665R;K677R;K679R;K702R;K709R;K714R;K724R;K824R | disrupting interaction |
